In patent US20020041865A1:

Tests used:
[1] = target: p185, the human HER-2/neu (c-erbB2) proto-oncogene product (human) (UniProt P04626); test: Scatchard analysis on SK-Br-3 cells
[2] = target: H520C9sFv-hIL-2 fusion protein (human) (UniProt P60568); test: cell-based or functional assay
[3] = target: recombinant human IL-2 (human) (UniProt P60568); test: cell-based or functional assay

| Ka [1] | 50% inhibition of [^3H]-thymidine incorporation in CTLL-2 cells (Neutralization Dose 50) for the same dose of H520C9sFv-hIL-2 [2] | 50% inhibition of [^3H]-thymidine incorporation in CTLL-2 cells (Neutralization Dose 50) for 2 ng/ml rhIL-2 [3] | Binder |
| --- | --- | --- | --- |
| 3.5e+08 M⁻¹ | – | – | murine monoclonal antibody 520C9 (antibody, from another filing, V domains shown) VH: EIQLVQSGPELKKPGETVKISCKASGYTFANYGMNWMKQAPGKGLKWMGWINTYTGQSTYADDFKERFAFSLETSATTAHLQINNLRNEDSATYFCARRFGFAYWGQGTLVSVSA VL: DIQMTQSPSSLSASLGERVSLTCRASQDIGNSLTWLQQEPDGTIKRLIYATSSLDSGVPKRFSGSRSGSDYSLTISSLESEDFVVYYCLQYAIFPYTFGGGTNLEIK |
| 6.7e+07 M⁻¹ | – | – | proteolytically cleaved Fab fragment of 520C9 (Fab, from another filing, V domains shown) VH: EIQLVQSGPELKKPGETVKISCKASGYTFANYGMNWMKQAPGKGLKWMGWINTYTGQSTYADDFKERFAFSLETSATTAHLQINNLRNEDSATYFCARRFGFAYWGQGTLVSVSA VL: DIQMTQSPSSLSASLGERVSLTCRASQDIGNSLTWLQQEPDGTIKRLIYATSSLDSGVPKRFSGSRSGSDYSLTISSLESEDFVVYYCLQYAIFPYTFGGGTNLEIK |
| – | 0.128 µg/mL | 0.076 µg/mL | mouse anti-human IL-2 mAb MAB202 (antibody, from another filing, V domains shown) VH: DVRLVESGGGLVKPGGSLKLSCAAYGFTFSSYTLAWVRQTPEKRLEWVAAIDSSSYTYSPDTVRGRFTISRDNAKNTLYLQMSSLKSEDTAMYYCTRDSNWDALDYWGQGTSVIVSS VL: DIVMTQSQKFMSTSVGDRVSVTCKASQNVGTNVGWYQQKPGQSPKALIYSASFRYSGVPDRFTGSGSGTDFSLTISNVKSEDLAEYFCQQYYTYPYTFGGGTKLEIK |
